In the supplement of paper PMC11246515:
± gives the standard deviation of the averaged measurements.

Experiment: total protein half-life in vivo (active degradation + dilution); higher = more stable protein
[1] = E. coli NCM3722 delta-clpP delta-lon delta-hslV, growth: N-lim chemostat, doubling time 6 h
[2] = E. coli NCM3722 delta-clpP, growth: N-lim chemostat, doubling time 6 h
[3] = E. coli NCM3722 delta-hslV, growth: N-lim chemostat, doubling time 6 h
[4] = E. coli NCM3722 delta-lon, growth: N-lim chemostat, doubling time 6 h
[5] = E. coli NCM3722 delta-smpB, growth: N-lim chemostat, doubling time 6 h
[6] = wild type E. coli NCM3722, growth: C-lim chemostat, doubling time 3 h
[7] = wild type E. coli NCM3722, growth: C-lim chemostat, doubling time 6 h
[8] = wild type E. coli NCM3722, growth: C-lim chemostat, doubling time 12 h
[9] = wild type E. coli NCM3722, growth: N-lim chemostat, doubling time 12 h
[10] = wild type E. coli NCM3722, growth: P-lim chemostat, doubling time 6 h
[11] = wild type E. coli NCM3722, growth: P-lim chemostat, doubling time 12 h
[12] = wild type E. coli NCM3722, growth: N-lim chemostat, doubling time 6 h

Row | Sequence | total protein half-life in vivo [1] | total protein half-life in vivo [2] | total protein half-life in vivo [3] | total protein half-life in vivo [4] | total protein half-life in vivo [5] | total protein half-life in vivo [6] | total protein half-life in vivo [7] | total protein half-life in vivo [8] | total protein half-life in vivo [9] | total protein half-life in vivo [10] | total protein half-life in vivo [11] | total protein half-life in vivo [12]
1 | MTMKKLLIIILPVLLSGCSAFNQLVERMQTDTLEYQCDEKPLTVKLNNPRQEVSFVYDNQLLHLKQGISASGARYTDGIYVFWSKGDEATVYKRDRIVLNNCQLQNPQR | 5.8 ± 0.46 h | 6.62 ± 0.99 h | 6.27 h | 6.49 ± 0.45 h | 5.45 ± 0.23 h | 3.27 ± 0.96 h | 6.52 ± 1.3 h | 13.5 ± 0.37 h | 14.4 ± 0.55 h | 6.32 ± 0.75 h | 13.8 ± 1.6 h | 
2 | MTMNITSKQMEITPAIRQHVADRLAKLEKWQTHLINPHIILSKEPQGFVADATINTPNGVLVASGKHEDMYTAINELINKLERQLNKLQHKGEARRAATSVKDANFVEEVEEE [P0AD49] | 6.33 ± 1.1 h | 4.87 h | 1.49 h |  | 0.687 h | 0.852 ± 0.17 h | 2.32 h | 2.47 ± 0.42 h | 1.07 h |  | 1.59 h | 
3 | MTMYATLEEAIDAAREEFLADNPGIDAEDANVQQFNAQKYVLQDGDIMWQVEFFADEGEEGECLPMLSGEAAQSVFDGDYDEIEIRQEWQEENTLHEWDEGEFQLEPPLDTEEGRAAADEWDER |  | 6.11 h | 3.33 h | 3.3 ± 0.71 h | 3.22 ± 0.1 h | 2.35 ± 0.29 h | 3.94 ± 0.066 h | 6.75 ± 1.1 h | 4.03 h | 3.9 ± 0.2 h | 7.26 h | 3.33 ± 0.17 h
4 | MTNLTLDVNIIDFPSIPVAMLPHRCSPELLNYSVAKFIMWRKETGLSPVNQSQTFGVAWDDPATTAPEAFRFDICGSVSEPIPDNRYGVSNGELTGGRYAVARHVGELDDISHTVWGIIRHWLPASGEKMRKAPILFHYTNLAEGVTEQRLETDVYVPLA | 6.15 h |  |  |  |  |  |  |  |  |  |  | 
5 | MTNNPPSAQIKPGEYGFPLKLKARYDNFIGGEWVAPADGEYYQNLTPVTGQLLCEVASSGKRDIDLALDAAHKVKDKWAHTSVQDRAAILFKIADRMEQNLELLATAETWDNGKPIRETSAADVPLAIDHFRYFASCIRAQEGGISEVDSETVAYHFHEPLGVVGQIIPWNFPLLMASWKMAPALAAGNCVVLKPARLTPLSVLLLMEIVGDLLPPGVVNVVNGAGGVIGEYLATSKRIAKVAFTGSTEVGQQIMQYATQNIIPVTLELGGKSPNIFFADVMDEEDAFFDKALEGFALFAFNQGEVCTCPSRALVQESIYERFMERAIRRVESIRSGNPLDSVTQMGAQVSHGQLETILNYIDIGKKEGADVLTGGRRKLLEGELKDGYYLEPTILFGQNNMRVFQEEIFGPVLAVTTFKTMEEALELANDTQYGLGAGVWSRNGNLAYKMGRGIQAGRVWTNCYHAYPAHAAFGGYKQSGIGRETHKMMLEHYQQTKCLLVSYSDKPLGLF |  | 4.04 ± 0.7 h | 2.42 ± 0.5 h | 2.83 ± 0.035 h | 2.42 ± 0.14 h | 2.73 ± 0.41 h | 5.1 ± 0.31 h | 7.87 ± 0.019 h | 4.07 ± 0.55 h | 3.08 ± 1.1 h | 6.36 ± 0.73 h | 2.77 ± 0.77 h
6 | MTNPQFAGHPFGTTVTAETLRNTFAPLTQWEDKYRQLIMLGKQLPALPDELKAQAKEIAGCENRVWLGYTVAENGKMHFFGDSEGRIVRGLLAVLLTAVEGKTAAELQAQSPLALFDELGLRAQLSASRSQGLNALSEAIIAATKQV [P0AGF2] | 4.97 ± 0.16 h | 4.73 ± 0.56 h | 4.9 ± 0.33 h | 5.38 ± 0.38 h | 4.87 ± 0.87 h | 3.4 ± 0.066 h | 5.18 ± 0.76 h | 8.98 ± 0.8 h | 8.14 ± 0.94 h | 5.64 ± 0.32 h | 11.1 ± 0.35 h | 4.504 ± 0.012 h
7 | MTNVLIVEDEQAIRRFLRTALEGDGMRVFEAETLQRGLLEAATRKPDLIILDLGLPDGDGIEFIRDLRQWSAVPVIVLSARSEESDKIAALDAGADDYLSKPFGIGELQARLRVALRRHSATTAPDPLVKFSDVTVDLAARVIHRGEEEVHLTPIEFRLLAVLLNNAGKVLTQRQLLNQVWGPNAVEHSHYLRIYMGHLRQKLEQDPARPRHFITETGIGYRFML | 5.392 ± 0.013 h | 5.1 ± 0.7 h | 5.29 ± 0.32 h | 4.99 ± 0.47 h | 4.92 ± 0.36 h | 3.04 ± 0.1 h | 5.35 ± 0.76 h | 10.1 ± 0.52 h | 9.806 ± 0.011 h | 5.79 ± 0.17 h | 10.1 ± 2 h | 5.05 ± 0.32 h
8 | MTNYSLRARMMILILAPTVLIGLLLSIFFVVHRYNDLQRQLEDAGASIIEPLAVSTEYGMSLQNRESIGQLISVLHRRHSDIVRAISVYDENNRLFVTSNFHLDPSSMQLGSNVPFPRQLTVTRDGDIMILRTPIISESYSPDESPSSDAKNSQNMLGYIALELDLKSVRLQQYKEIFISSVMMLFCIGIALIFGWRLMRDVTGPIRNMVNTVDRIRRGQLDSRVEGFMLGELDMLKNGINSMAMSLAAYHEEMQHNIDQATSDLRETLEQMEIQNVELDLAKKRAQEAARIKSEFLANMSHELRTPLNGVIGFTRLTLKTELTPTQRDHLNTIERSANNLLAIINDVLDFSKLEAGKLILESIPFPLRSTLDEVVTLLAHSSHDKGLELTLNIKSDVPDNVIGDPLRLQQIITNLVGNAIKFTENGNIDILVEKRALSNTKVQIEVQIRDTGIGIPERDQSRLFQAFRQADASISRRHGGTGLGLVITQKLVNEMGGDISFHSQPNRGSTFWFHINLDLNPNIIIEGPSTQCLAGKRLAYVEPNSAAAQCTLDILSETPLEVVYSPTFSALPPAHYDMMLLGIAVTFREPLTMQHERLAKAVSMTDFLMLALPCHAQVNAEKLKQDGIGACLLKPLTPTRLLPALTEFCHHKQNTLLPVTDESKLAMTVMAVDDNPANLKLIGALLEDMVQHVELCDSGHQAVERAKQMPFDLILMDIQMPDMDGIRACELIHQLPHQQQTPVIAVTAHAMAGQKEKLLGAGMSDYLAKPIEEERLHNLLLRYKPGSGISSRVVTPEVNEIVVNPNATLDWQLALRQAAGKTDLARDMLQMLLDFLPEVRNKVEEQLVGENPEGLVDLIHKLHGSCGYSGVPRMKNLCQLIEQQLRSGTKEEDLEPELLELLDEMDNVAREASKILG [P0AEC5] | 6.36 ± 0.23 h | 5.96 ± 0.43 h | 6.35 ± 0.93 h | 6.05 ± 1.2 h | 5.8 ± 0.066 h | 3.45 ± 0.058 h | 5.985 ± 0.046 h | 10.5 ± 1.6 h | 13.1 ± 0.83 h | 6.32 ± 0.066 h | 11.4 ± 0.16 h | 
9 | MTPDELARLTGYSRQTINKWVRKEGWTTSPKPGVQGGKARLVHVNEQVREYIRNAERPEGQGEAPALSGDAPLEVLLVTLAKEMTPVEQKQFTSLLLREGIIGLLQRLGIRDSK [P0AD37] |  |  |  |  |  | 1.89 h |  |  |  |  |  | 
